The text below walks through data of article PMC5821459.

In the experiment the target is L1 ORF2p-3xFLAG (ORFeus-Hs, pLD401, WT) (human) (UniProt O00370). Put plainly: affinity purification with mass spectrometry; On-bead RNase-sensitivity assay: ORF2p-3xFLAG (pLD401) captured on α-FLAG magnetic medium from HEK-293T_LD extract in 20 mM HEPES-Na pH 7.4, 500 mM NaCl, 1% Triton X-100; medium treated with RNases A and T1 or with BSA, 30 min RT; retained material eluted with LDS; label-swapped SILAC.
UniProt O00370, sequence (O00370 whole entry): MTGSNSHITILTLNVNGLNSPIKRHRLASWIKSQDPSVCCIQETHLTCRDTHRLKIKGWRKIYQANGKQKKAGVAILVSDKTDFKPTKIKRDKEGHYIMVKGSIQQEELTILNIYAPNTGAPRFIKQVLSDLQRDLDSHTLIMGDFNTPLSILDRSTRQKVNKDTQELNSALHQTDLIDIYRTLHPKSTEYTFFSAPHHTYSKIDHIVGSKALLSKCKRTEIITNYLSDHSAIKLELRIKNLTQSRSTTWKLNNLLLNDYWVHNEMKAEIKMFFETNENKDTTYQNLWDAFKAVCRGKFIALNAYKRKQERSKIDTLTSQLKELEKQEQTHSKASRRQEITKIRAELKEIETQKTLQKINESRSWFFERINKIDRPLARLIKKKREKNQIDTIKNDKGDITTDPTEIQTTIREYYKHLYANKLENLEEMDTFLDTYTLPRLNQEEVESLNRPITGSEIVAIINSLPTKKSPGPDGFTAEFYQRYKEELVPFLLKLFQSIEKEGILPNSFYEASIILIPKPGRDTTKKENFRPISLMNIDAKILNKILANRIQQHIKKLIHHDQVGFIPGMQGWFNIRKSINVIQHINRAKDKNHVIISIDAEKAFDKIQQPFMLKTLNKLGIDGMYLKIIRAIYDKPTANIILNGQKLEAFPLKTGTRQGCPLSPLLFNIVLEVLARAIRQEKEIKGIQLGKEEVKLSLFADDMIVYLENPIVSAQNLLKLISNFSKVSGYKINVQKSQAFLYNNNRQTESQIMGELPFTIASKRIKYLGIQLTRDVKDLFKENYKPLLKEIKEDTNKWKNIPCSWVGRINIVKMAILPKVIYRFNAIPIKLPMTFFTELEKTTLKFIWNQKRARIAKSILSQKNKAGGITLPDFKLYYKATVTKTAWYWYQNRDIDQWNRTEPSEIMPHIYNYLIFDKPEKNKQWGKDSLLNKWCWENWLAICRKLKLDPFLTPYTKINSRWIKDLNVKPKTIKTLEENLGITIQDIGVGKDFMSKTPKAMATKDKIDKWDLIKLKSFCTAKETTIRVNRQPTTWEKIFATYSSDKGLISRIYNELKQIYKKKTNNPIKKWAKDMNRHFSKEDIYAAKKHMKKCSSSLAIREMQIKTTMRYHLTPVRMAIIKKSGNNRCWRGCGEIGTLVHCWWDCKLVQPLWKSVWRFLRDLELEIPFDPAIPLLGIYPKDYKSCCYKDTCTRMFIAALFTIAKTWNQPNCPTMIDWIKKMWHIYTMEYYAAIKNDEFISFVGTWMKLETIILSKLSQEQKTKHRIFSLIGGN

In turn, “Regulator of nonsense transcripts 1 (from UniProt Q92900 1-1129) (natural protein)” came in with an RNase sensitivity relative to that of MOV10 of 62%.
